Patent publication US5891438

What was measured:
[1] = biological target: human tonsillar B cells (CD20+ / CD19+, surface Ig); test: flow cytometry, dual staining with biotinylated bacterial antigen
[2] = biological target: human tonsillar B cells (CD20+ / CD19+, surface Ig); test: flow cytometry, biotinylated mod-SpA on tonsillar B cells; the pair that the inhibitors of Table 5 block

Question: With Protein G (from UniProt P19909) as the substance, how does the Protein G Binding (share of CD20 tonsillar cells) [1] read?
Answer: 9%

Question: For “staphylococcal protein A (SpA), purified recombinant form (from UniProt P38507)”, which SpA Binding (share of CD20 tonsillar cells) [1] is on record?
Answer: 29%

Question: For “SpA modified by hyperiodination to destroy IgG Fc binding activity (mod-SpA) (from UniProt P38507)”, which Binding (proportion of the total B cells bound by mod-SpA) [2] is on record?
Answer: 15
